Data as given in paper PMC3557383.

Biological target: T1, RepA (ORF3) (Moraxella bovis ATCC 10900 (plasmid pMbo4.6)) (UniProt D0V0D3)
T1 sequence: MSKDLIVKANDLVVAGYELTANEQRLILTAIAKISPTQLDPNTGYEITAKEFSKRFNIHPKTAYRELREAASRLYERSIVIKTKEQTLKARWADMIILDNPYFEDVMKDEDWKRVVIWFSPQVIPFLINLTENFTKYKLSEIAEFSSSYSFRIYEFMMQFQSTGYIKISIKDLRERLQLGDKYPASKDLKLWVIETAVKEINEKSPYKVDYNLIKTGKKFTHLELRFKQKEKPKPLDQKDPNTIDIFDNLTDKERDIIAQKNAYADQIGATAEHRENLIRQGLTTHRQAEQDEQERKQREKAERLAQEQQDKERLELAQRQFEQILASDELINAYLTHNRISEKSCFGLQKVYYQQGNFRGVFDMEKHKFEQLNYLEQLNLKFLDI
Assay: EMSA
Conditions: 10 mM Tris-HCl pH 7.5, 10 mM MgCl2, 100 mM NaCl, 0.2 mM DTT, 5% glycerol, 30 ul, 22 C 20 min; 6% PAGE 0.4x TBE at 4 C

Sequence	binding
AAGAATTCGGGCGTGGTTTTGGGGATTGATTTTGTTTTGTCTTTTTAGCTAAAAAAACAAGAAAATTAACAAGAAAAAGAGCCAAAACCGAGTGCTTTTTCGGTTTTGGCGTTTTTTTATTTTTTTAATATATTTTTAATAGTTTTTAGACCCCCTGCAAAGCCTTATGTATCAAAGGTTTGCG (double strand) [orirep32]	no binding
CTAGGAGGGATTGACTACCAAATAGGAGGGATTGACTACTCAAATAGGAGGGATTGACTACTCAAATAGGAGGGATTGACTACCAAATAGGAGTATTTACAATAACTCTTTTTAGGTGTATAATTAATTACTCCTTTTTTGCTAATGAGACCTAAAAATGAGCAAAGATTTAATTGTAGGATCCAA (double strand) [orirep15]	binds
